Results as given in publication PMC9201380 (2022).

Molecular target: SARS-CoV-2 S receptor-binding domain (residues 330-531), Avi-tagged and biotinylated (SARS-CoV-2, UniProt P0DTC2 330-531)
Assay: BLI

B1: DL28 (monovalent nanobody) (VHH)
VHH: QVQLQESGGGLVQAGGSLRLSCAASGSDFSSSTMGWYRQAPGKQREFVAISSEGSTSYAGSVKGRFTISRDNAKNTVYLQMNSLEPEDTAVYYCNVVDRWYDYWGQGTQVTVSA
- koff: 0.000743 s⁻¹
